Assay results reported in the supplement of paper PMC12764529.
± gives the half width of the 95% confidence interval.

Experiment: folding stability dG unfold from trypsin proteolysis; higher = more stable
Method in brief: (§1)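 Designed mini-proteins with no cysteine and under 80 residues were kept only if AlphaFold2 dimer inter-PAE was above 15. In a PA-tagged cDNA display construct, they were digested with trypsin and chymotrypsin and then sequenced. K50 was inferred by Bayesian fitting of counts, and unfolding free energy was derived per protease or combined against a sequence-predicted unfolded-state K50 and a shared folded-state K50.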

Row | Sequence | folding stability dG unfold [kcal/mol]
1 | SAGGSAGGSAGGSMIIRIETKDGKIIEIEIKEDEDKTPEEIAKELAKKYNIKKIEIFEPSAGGSAGGSAGGS [r4_116_TrROS_Hall] | 3.27 ± 0.12
2 | SAGGMKTLTITLTVRNPATQETLTLTITVPEGMSEEELQALLKQLQELVEALLQLPPPPPPPPPELESAGGS [r16_191_TrROS_Hall] | 3.16 ± 0.12
3 | SAGGSAEKEVYLVPFESEEKREKLREALLAEPGIEEVKETEDGVLLVTVPKGLSDKVEKAIKEAGISAGGSA [r15_834_TrMRF] | 1.21 ± 0.047
4 | SADIKIDDIETQENPDGYEWYMITINFPDPKKFKEKLKKHGVNPEWDPNDPDQVEIWFPREDIQEILKLSAG [r14_777_TrROS] | 0.328 ± 0.21
5 | SKKTITITIEDKETGLKVEITINEDGTITIKVYDKDGKLVAEVKAKIKLVKDKDGKIRLVIEEIEIKVKPSA [r9_434_TrROS_Hall] | 3.87 ± 0.46
6 | SAGGMVVTEEGDKTYITVRVPAPPGLPPEAVAAEIRERYGLSDLEVLEVEALPDGTLVVRLRDSTPASAGGS [r16_234_JUSTAS] | 2.55 ± 0.074
7 | SAGGSMELELEVKNPETGKTYKVKITSFDEETGEVTVEIEDEETGETKTLTFKVEPVELVEEEEEESAGGSA [r2_147_TrROS_Hall] | 2.38 ± 0.1
8 | SAGNVIVVVNPETGEVVVVSFDELVRIVAVSSKTLVPEVRDVPRDKVLDFIKEAFPGPVEILEIKPAPVSAG [r5_519_TrMRF] | 1.02 ± 0.043
9 | SAGMTVTFTLDFPANGGPITITVYHGDKAEEITVPKNETVTITVDLDPNDGLTIRAHYPDGSYVEFPIGSAG [r5_187_TrMRF] | 3.46 ± 0.16
10 | SAGSSSMVLLKVTITFTDPNGTTTTLTYTFDDPSNPEKARAAVEALAAEIKAATGASWTITMTTVPVPGSAG [r14_146_JUSTAS] | 4.59 ± 0.16
11 | SAGGAVEVKEIKILPPVLDPEGDPSNPLLRVEITTKITENTPEGKKILEKTKTYLVSPENLEEVLKKLSAGG [r13_149_JUSTAS] | 2.05 ± 0.065
12 | SAGGSAGGSAGPEVRIELERDEDGRLRLRATFKLEDGKEVRVEVEFDLKTKKLTVKIEPVSAGGSAGGSAGG [r11_107_TrROS_Hall] | 3.83 ± 0.19
13 | SAGGSAGGSMLVLKVEVKIEVEEREVIGPDGKIKKEKKIKIEIKIELFELPPLTEEELKKLKESAGGSAGGS [r12_1060_TrROS_Hall] | 2.73 ± 0.27
14 | SSLGPGELEVTELETTEEELPDGTTLKRTLSREIVPDPAGAGRVVLTETLSTVPPDGSETVTTLSVTVLASA [r9_838_JUSTAS] | -0.078 ± 0.13
15 | SAGGSAGGSMPFIKVKVRFIEPNGIERTFEIELPEDKNLDEAIKLAPLFAKNGLPVEIEEVEGSAGGSAGGS [r12_804_TrMRF] | 0.758 ± 0.089
16 | SAGGSISVEELKKLPPDSTLTYTEGDKLYEIKVYKNPEGALSIEITEIDPNTGSPVKTEIVNLEELLSAGGS [r16_763_JUSTAS] | 1.63 ± 0.13
17 | SAPEVEVFPGKDNSALVRVVFEFDGYRIEVVRRVPVEALKAGIPLEELPDVEILEVRVVKLPKPRPDELSAG [r14_856_TrMRF] | 2.17 ± 0.056
18 | SAGSKEEKAKEIAKKLAEELKKKFPDLKIVEVKVVKIEYNKENKEIKITIYVYNKNGKLIKKIEITLPSAGG [r19_53_TrROS_Hall] | 3.58 ± 0.2

Experiment: folding stability dG unfold from chymotrypsin proteolysis; higher = more stable
Method in brief: as §1

Row | Sequence | folding stability dG unfold [kcal/mol]
19 | SAGGSAGGSAGGSMIIRIETKDGKIIEIEIKEDEDKTPEEIAKELAKKYNIKKIEIFEPSAGGSAGGSAGGS [r4_116_TrROS_Hall] | 3.57 ± 0.062
20 | SAGGMKTLTITLTVRNPATQETLTLTITVPEGMSEEELQALLKQLQELVEALLQLPPPPPPPPPELESAGGS [r16_191_TrROS_Hall] | 4.25 ± 0.066
21 | SAGGSAEKEVYLVPFESEEKREKLREALLAEPGIEEVKETEDGVLLVTVPKGLSDKVEKAIKEAGISAGGSA [r15_834_TrMRF] | 1.08 ± 0.025
22 | SADIKIDDIETQENPDGYEWYMITINFPDPKKFKEKLKKHGVNPEWDPNDPDQVEIWFPREDIQEILKLSAG [r14_777_TrROS] | 0.884 ± 0.28
23 | SKKTITITIEDKETGLKVEITINEDGTITIKVYDKDGKLVAEVKAKIKLVKDKDGKIRLVIEEIEIKVKPSA [r9_434_TrROS_Hall] | 3.04 ± 0.13
24 | SAGGMVVTEEGDKTYITVRVPAPPGLPPEAVAAEIRERYGLSDLEVLEVEALPDGTLVVRLRDSTPASAGGS [r16_234_JUSTAS] | 2.554 ± 0.021
25 | SAGGSMELELEVKNPETGKTYKVKITSFDEETGEVTVEIEDEETGETKTLTFKVEPVELVEEEEEESAGGSA [r2_147_TrROS_Hall] | 3.28 ± 0.037
26 | SAGNVIVVVNPETGEVVVVSFDELVRIVAVSSKTLVPEVRDVPRDKVLDFIKEAFPGPVEILEIKPAPVSAG [r5_519_TrMRF] | 1.22 ± 0.05
27 | SAGMTVTFTLDFPANGGPITITVYHGDKAEEITVPKNETVTITVDLDPNDGLTIRAHYPDGSYVEFPIGSAG [r5_187_TrMRF] | 4.65 ± 0.053
28 | SAGSSSMVLLKVTITFTDPNGTTTTLTYTFDDPSNPEKARAAVEALAAEIKAATGASWTITMTTVPVPGSAG [r14_146_JUSTAS] | 5.32 ± 0.066
29 | SAGGAVEVKEIKILPPVLDPEGDPSNPLLRVEITTKITENTPEGKKILEKTKTYLVSPENLEEVLKKLSAGG [r13_149_JUSTAS] | 1.98 ± 0.07
30 | SAGGSAGGSAGPEVRIELERDEDGRLRLRATFKLEDGKEVRVEVEFDLKTKKLTVKIEPVSAGGSAGGSAGG [r11_107_TrROS_Hall] | 4.8 ± 0.41
31 | SAGGSAGGSMLVLKVEVKIEVEEREVIGPDGKIKKEKKIKIEIKIELFELPPLTEEELKKLKESAGGSAGGS [r12_1060_TrROS_Hall] | 4.14 ± 0.21
32 | SSLGPGELEVTELETTEEELPDGTTLKRTLSREIVPDPAGAGRVVLTETLSTVPPDGSETVTTLSVTVLASA [r9_838_JUSTAS] | -0.0934 ± 0.17
33 | SAGGSAGGSMPFIKVKVRFIEPNGIERTFEIELPEDKNLDEAIKLAPLFAKNGLPVEIEEVEGSAGGSAGGS [r12_804_TrMRF] | 0.0494 ± 0.44
34 | SAGGSISVEELKKLPPDSTLTYTEGDKLYEIKVYKNPEGALSIEITEIDPNTGSPVKTEIVNLEELLSAGGS [r16_763_JUSTAS] | 3.53 ± 0.075
35 | SAPEVEVFPGKDNSALVRVVFEFDGYRIEVVRRVPVEALKAGIPLEELPDVEILEVRVVKLPKPRPDELSAG [r14_856_TrMRF] | 2.85 ± 0.029
36 | SAGSKEEKAKEIAKKLAEELKKKFPDLKIVEVKVVKIEYNKENKEIKITIYVYNKNGKLIKKIEITLPSAGG [r19_53_TrROS_Hall] | 4.63 ± 0.11

Experiment: folding stability dG unfold (combined trypsin and chymotrypsin); higher = more stable
Method in brief: as §1

Row | Sequence | folding stability dG unfold [kcal/mol]
37 | SAGGSAGGSAGGSMIIRIETKDGKIIEIEIKEDEDKTPEEIAKELAKKYNIKKIEIFEPSAGGSAGGSAGGS [r4_116_TrROS_Hall] | 3.44 ± 0.096
38 | SAGGMKTLTITLTVRNPATQETLTLTITVPEGMSEEELQALLKQLQELVEALLQLPPPPPPPPPELESAGGS [r16_191_TrROS_Hall] | 4.01 ± 0.11
39 | SAGGSAEKEVYLVPFESEEKREKLREALLAEPGIEEVKETEDGVLLVTVPKGLSDKVEKAIKEAGISAGGSA [r15_834_TrMRF] | 1.17 ± 0.086
40 | SADIKIDDIETQENPDGYEWYMITINFPDPKKFKEKLKKHGVNPEWDPNDPDQVEIWFPREDIQEILKLSAG [r14_777_TrROS] | 0.665 ± 0.36
41 | SKKTITITIEDKETGLKVEITINEDGTITIKVYDKDGKLVAEVKAKIKLVKDKDGKIRLVIEEIEIKVKPSA [r9_434_TrROS_Hall] | 3.61 ± 0.44
42 | SAGGMVVTEEGDKTYITVRVPAPPGLPPEAVAAEIRERYGLSDLEVLEVEALPDGTLVVRLRDSTPASAGGS [r16_234_JUSTAS] | 2.55 ± 0.044
43 | SAGGSMELELEVKNPETGKTYKVKITSFDEETGEVTVEIEDEETGETKTLTFKVEPVELVEEEEEESAGGSA [r2_147_TrROS_Hall] | 3.08 ± 0.076
44 | SAGNVIVVVNPETGEVVVVSFDELVRIVAVSSKTLVPEVRDVPRDKVLDFIKEAFPGPVEILEIKPAPVSAG [r5_519_TrMRF] | 1.19 ± 0.053
45 | SAGMTVTFTLDFPANGGPITITVYHGDKAEEITVPKNETVTITVDLDPNDGLTIRAHYPDGSYVEFPIGSAG [r5_187_TrMRF] | 4.5 ± 0.09
46 | SAGSSSMVLLKVTITFTDPNGTTTTLTYTFDDPSNPEKARAAVEALAAEIKAATGASWTITMTTVPVPGSAG [r14_146_JUSTAS] | 5.17 ± 0.12
47 | SAGGAVEVKEIKILPPVLDPEGDPSNPLLRVEITTKITENTPEGKKILEKTKTYLVSPENLEEVLKKLSAGG [r13_149_JUSTAS] | 2.18 ± 0.13
48 | SAGGSAGGSAGPEVRIELERDEDGRLRLRATFKLEDGKEVRVEVEFDLKTKKLTVKIEPVSAGGSAGGSAGG [r11_107_TrROS_Hall] | 4.63 ± 0.39
49 | SAGGSAGGSMLVLKVEVKIEVEEREVIGPDGKIKKEKKIKIEIKIELFELPPLTEEELKKLKESAGGSAGGS [r12_1060_TrROS_Hall] | 3.6 ± 0.72
50 | SSLGPGELEVTELETTEEELPDGTTLKRTLSREIVPDPAGAGRVVLTETLSTVPPDGSETVTTLSVTVLASA [r9_838_JUSTAS] | -0.138 ± 0.16
51 | SAGGSAGGSMPFIKVKVRFIEPNGIERTFEIELPEDKNLDEAIKLAPLFAKNGLPVEIEEVEGSAGGSAGGS [r12_804_TrMRF] | 0.466 ± 0.18
52 | SAGGSISVEELKKLPPDSTLTYTEGDKLYEIKVYKNPEGALSIEITEIDPNTGSPVKTEIVNLEELLSAGGS [r16_763_JUSTAS] | 3.21 ± 0.12
53 | SAPEVEVFPGKDNSALVRVVFEFDGYRIEVVRRVPVEALKAGIPLEELPDVEILEVRVVKLPKPRPDELSAG [r14_856_TrMRF] | 2.58 ± 0.061
54 | SAGSKEEKAKEIAKKLAEELKKKFPDLKIVEVKVVKIEYNKENKEIKITIYVYNKNGKLIKKIEITLPSAGG [r19_53_TrROS_Hall] | 4.38 ± 0.18
